Assay results: US20250066455A1 (published 2025)

B1: REGN10987 (antibody, V domains shown)
VH: QVQLVESGGGVVQPGRSLRLSCAASGFTFSNYAMYWVRQAPGKGLEWVAVISYDGSNKYYADSVKGRFTISRDNSKNTLYLQMNSLRTEDTAVYYCASGSDYGDYLLVYWGQGTLVTVSS
VL: QSALTQPASVSGSPGQSITISCTGTSSDVGGYNYVSWYQQHPGKAPKLMIYDVSKRPSGVSNRFSGSKSGNTASLTISGLQSEDEADYYCNSLTSISTWVFGGGTKLTVLR
B2: REGN10933 (antibody, V domains shown)
VH: QVQLVESGGGLVKPGGSLRLSCAASGFTFSDYYMSWIRQAPGKGLEWVSYITYSGSTIYYADSVKGRFTISRDNAKSSLYLQMNSLRAEDTAVYYCARDRGTTMVPFDYWGQGTLVTVSS
VL: DIQMTQSPSSLSASVGDRVTITCQASQDITNYLNWYQQKPGKAPKLLIYAASNLETGVPSRFSGSGSGTDFTFTISGLQPEDIATYYCQQYDNLPLTFGGGTKVEIKR
B3: PDI 231 (antibody, V domains shown)
VH: EVQLVESGGGLIQPGGSLRLSCVASGLTVSSNYMNWVRQTPGKGLEWVSVIYSGGSTFYADSVKGRFTISRDNSKNTLFLQMNSLRAEDTAVYYCARVGGYCSSANCVSDVWGKGTTVTVSS
VL: DIQMTQSPSSLSASVGDRVTITCQASQDIRNYLNWYQQKPGKAPKIMIYDASILETGVPSRFSGSGSGTDFTFTISSLQPEDIATYYCQQYDNLPITFGQGTQLEIK
B4: PDI 42 (antibody, V domains shown)
VH: EVQLVESGGGLVQPGGSLRLSCAASGLTVSSNYMSWVRQAPGKGLEWVSVFYPGGSTYNADSVKGRFTISRDNSKNTLYLQMNSLRAEDTAVYYCARDAVYYGMDVWGQGTTVTVSS
VL: not shown
B5: PDI 96 (antibody, V domains shown)
VH: LVQLVQSGAEVKKPGASVKISCKASGYTFTSYYMHWVRQAPGQGLEWMGIINPSGGGTSYAQKFQGRVTMTRDTSTSTVYMELTSLRSDDTAVYYCAKDRVTIFWGNGMDVWGQGTTVTVSS
VL: not shown

Assays:
SARS-CoV-2 WT RBD = SARS-CoV-2 WT RBD (SARS-CoV-2, UniProt P0DTC2 319-541); test: BLI
RBD = RBD (SARS-CoV-2, UniProt P0DTC2 319-541); test: ELISA
[1] = target: T1, SARS-CoV-2 spike receptor-binding domain (RBD) (SARS-CoV-2, UniProt P0DTC2 319-541); test: ELISA
[2] = target: T1, SARS-CoV-2 spike receptor-binding …; test: BLI

Binder | Kd (SARS-CoV-2 WT RBD) [nM] | IC50 (RBD) [µg/mL] | IC50 [1] [µg/mL] | Kd [2] [nM]
B1 | 17.6 | 0.298 | – | –
B2 | 3.5 | 0.293 | – | –
B3 | – | – | 0.328 | 0.38
B4 | – | – | 0.31 | 1.1
B5 | – | – | 0.346 | 2.6
